Target: T1, CD271 (NGFR, p75NTR)/Fc chimera (Homo sapiens, UniProt P08138 P08138:29-250)
T1 chain: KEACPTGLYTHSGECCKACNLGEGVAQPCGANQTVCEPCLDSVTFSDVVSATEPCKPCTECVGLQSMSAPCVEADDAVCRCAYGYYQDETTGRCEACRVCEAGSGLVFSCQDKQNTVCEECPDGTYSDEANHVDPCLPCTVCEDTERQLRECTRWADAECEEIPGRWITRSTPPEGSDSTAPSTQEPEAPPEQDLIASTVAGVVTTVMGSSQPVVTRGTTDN
Assay: size exclusion HPLC, 0.01 M PBS pH 7.4, room temperature, aptamer to protein 5:1; complex elutes at 21.2 min
Conditions: tags: human IgG1 Fc chimera, Sigma-Aldrich N8898 (lyophilized with PBS salts and BSA); chain copies: 2; label: biotin

B1: 1391-Motif (ssDNA)
DNA: TACGACTCACTATAGGGATCCAAGAAAGAAAAAGGAGAAAGGGGGGGGGGAATTCCCTTTAGTGAGGGTT
modifications: biotinylated for SPR
binding result: binds

Source: patent US20150376619, “APTAMERS THAT BIND CD271” (VIVONICS, INC., published 2015)
